From paper PMC5511259

Target: Hd1 segment (aa112–337) between the zinc finger domain and the CCT domain (rice (Oryza sativa L.)) (UniProt Q9FDX8)
Sequence of UniProt Q9FDX8 (Q9FDX8 112-337): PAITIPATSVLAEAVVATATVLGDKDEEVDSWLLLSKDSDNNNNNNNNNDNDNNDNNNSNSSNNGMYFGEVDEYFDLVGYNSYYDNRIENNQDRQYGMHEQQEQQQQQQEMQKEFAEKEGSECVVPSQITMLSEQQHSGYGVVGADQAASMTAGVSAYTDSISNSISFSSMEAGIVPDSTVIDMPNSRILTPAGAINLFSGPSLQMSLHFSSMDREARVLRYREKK

relative LUC activity activated by GAL4-Hd1^ZS (full-length CDS of Hd1 from ZS97) in rice protoplasts with increasing dosage of 35S:Ghd7-CFP (2, 4, 10 μg); decreased from 7.0 to 0.8 (relative LUC activity): 7
Substance: Ghd7 (aa187–257) segment containing the CCT domain (from UniProt E5RQA1 187-257) (domain or fragment)
